Reference: patent US11904004B2, “Anti-CD277 antibodies” (INSTITUT NATIONAL DE LA SANTE ET DE LA RECHERCHE MEDICALE …, priority 2010, dated 2024)

System: CD4+ T cells
Assay: Functional assays on CD4+ T cells using plate-immobilized mAbs
Type: cell-based, human
Description: Purified CD4+ T cells (200×10^3 cells/well) from thawed human PBMCs were cultured in RPMI 1640 10% FBS in flat bottom 96-well plates (MICROTEST™ 96, BD) with previously plate-immobilized mouse anti-human CD3 (clone OKT3)/CD28 (clone CD28.2) or anti-CD3/anti-CD277 (clone 20.1) or anti-CD3/isotypic control (IgG1). Purified anti-CD3 was used at 0, 3 μg/ml. Anti-CD28, anti-CD277 and isotypic control were used at 10 μg/ml. Cells were placed into an atmosphere of 5% CO2 at 37° C. in a humidified incubator. […] […] Data were analyzed using FLOWJO® Software (TreeStar, Ashland, OR).

[1] = co-stimulation with anti-CD3, vs anti-CD3/IgG1 control, after 24 hours of culture

B1: mAb 20.1: murine anti-CD277 antibody obtainable from the hybridoma CNCM I-4402; agonist (antibody, V domains shown)
VH: QVQLQQSGAELVKPGASVKLSCKASGYTFTRYYLYWVKQRPGQGLEWIGEINPNNGGTKFNEKFKSKATLTVDKSSRTTYIQLSSLTSEDSAVYYCSREDDYDGTPDAMDYWGQGTAVTVSS
VL: DIQMNQSPSSLSASLGDTITITCHASQNINLWLSWYQQRPGNIPKLLIYRASNLHTGVPSRFSGSGSATGFTLTISSLQPEDIATYYCQQGHSYPYTFGGGTKLDIK
B1 was tested, and the “IFN-γ production by CD4+ T cells (ELISA)” value [1] was “strongly enhanced”, the “IL-2 production by CD4+ T cells (ELISA)” value [1] was “significantly highest than the one with the IgG control” and the “CD25 activated positive cells” value (co-stimulation with anti-CD3, after 3 days of culture) was 45%.
